Experimental data from publication PMC10786891, “Massively parallel profiling of RNA-targeting CRISPR-Cas13d”.

T1: EsCas13d, nuclease-dead (Eubacterium siraeum, UniProt B0MS50, R295A;H300A;R849A;H854A)
T1 sequence: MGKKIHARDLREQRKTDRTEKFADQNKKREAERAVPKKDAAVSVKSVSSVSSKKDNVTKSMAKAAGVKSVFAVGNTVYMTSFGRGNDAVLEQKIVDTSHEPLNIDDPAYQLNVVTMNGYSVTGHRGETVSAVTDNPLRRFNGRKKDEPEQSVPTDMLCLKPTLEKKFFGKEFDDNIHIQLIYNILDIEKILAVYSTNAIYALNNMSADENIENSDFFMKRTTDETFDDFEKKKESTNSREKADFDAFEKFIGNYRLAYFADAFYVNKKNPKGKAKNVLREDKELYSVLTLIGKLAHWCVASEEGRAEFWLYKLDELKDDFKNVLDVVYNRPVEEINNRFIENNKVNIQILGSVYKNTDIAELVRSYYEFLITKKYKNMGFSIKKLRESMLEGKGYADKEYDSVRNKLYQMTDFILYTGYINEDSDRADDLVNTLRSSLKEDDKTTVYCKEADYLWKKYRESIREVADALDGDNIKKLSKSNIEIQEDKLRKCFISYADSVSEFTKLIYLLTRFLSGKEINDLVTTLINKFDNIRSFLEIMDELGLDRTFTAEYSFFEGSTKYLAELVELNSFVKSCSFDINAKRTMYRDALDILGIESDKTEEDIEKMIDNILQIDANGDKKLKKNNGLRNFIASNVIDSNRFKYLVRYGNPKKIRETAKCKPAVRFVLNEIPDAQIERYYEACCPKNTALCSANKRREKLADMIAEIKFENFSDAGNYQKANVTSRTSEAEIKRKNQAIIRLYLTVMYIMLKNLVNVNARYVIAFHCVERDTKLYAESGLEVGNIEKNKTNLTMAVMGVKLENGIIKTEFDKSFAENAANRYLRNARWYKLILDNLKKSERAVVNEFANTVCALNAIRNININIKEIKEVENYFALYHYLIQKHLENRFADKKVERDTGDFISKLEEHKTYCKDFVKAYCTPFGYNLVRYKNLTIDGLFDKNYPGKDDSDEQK

B1: target 1 del7,del18 (mixed)
RNA 1: CACCCGUGCAAAAAUGCAGGGGUCUAAAACUGAGCGGAUAACCUCUCUAUGG
RNA 2: GGGAAUGGAUCCACAUCUACGAAUUCGUACCAUGAGAGGUUAUCGCUCACCGAGAUCGGAAGAGCACACGU
B2: target 1 G15C (mixed)
RNA 1: CACCCGUGCAAAAAUGCAGGGGUCUAAAACUGAGCGGAUAACCUCUCUAUGG
RNA 2: GGGAAUGGAUCCACAUCUACGAAUUCGUACCAUAGACAGGUUAUCCGCUCACCGAGAUCGGAAGAGCACACGU
B3: target 1 insG 3' of 19,insC 3' of 13 (mixed)
RNA 1: CACCCGUGCAAAAAUGCAGGGGUCUAAAACUGAGCGGAUAACCUCUCUAUGG
RNA 2: GGGAAUGGAUCCACAUCUACGAAUUCGUACCAUGAGAGAGCGUUAUCCGCUCACCGAGAUCGGAAGAGCACACGU
B4: target 1 del4,del15 (mixed)
RNA 1: CACCCGUGCAAAAAUGCAGGGGUCUAAAACUGAGCGGAUAACCUCUCUAUGG
RNA 2: GGGAAUGGAUCCACAUCUACGAAUUCGUACCAUAGAAGGUUAUCCGUCACCGAGAUCGGAAGAGCACACGU
B5: target 1 C4A,U19A (mixed)
RNA 1: CACCCGUGCAAAAAUGCAGGGGUCUAAAACUGAGCGGAUAACCUCUCUAUGG
RNA 2: GGGAAUGGAUCCACAUCUACGAAUUCGUACCAAAGAGAGGUUAUCCGAUCACCGAGAUCGGAAGAGCACACGU
B6: target 1 A9G,G12C (mixed)
RNA 1: CACCCGUGCAAAAAUGCAGGGGUCUAAAACUGAGCGGAUAACCUCUCUAUGG
RNA 2: GGGAAUGGAUCCACAUCUACGAAUUCGUACCAUAGAGAGCUUGUCCGCUCACCGAGAUCGGAAGAGCACACGU
B7: target 1 G15U (mixed)
RNA 1: CACCCGUGCAAAAAUGCAGGGGUCUAAAACUGAGCGGAUAACCUCUCUAUGG
RNA 2: GGGAAUGGAUCCACAUCUACGAAUUCGUACCAUAGAUAGGUUAUCCGCUCACCGAGAUCGGAAGAGCACACGU
B8: target 1 A9G,A14U (mixed)
RNA 1: CACCCGUGCAAAAAUGCAGGGGUCUAAAACUGAGCGGAUAACCUCUCUAUGG
RNA 2: GGGAAUGGAUCCACAUCUACGAAUUCGUACCAUAGAGUGGUUGUCCGCUCACCGAGAUCGGAAGAGCACACGU
B9: target 1 insG 3' of 18,insG 3' of 11 (mixed)
RNA 1: CACCCGUGCAAAAAUGCAGGGGUCUAAAACUGAGCGGAUAACCUCUCUAUGG
RNA 2: GGGAAUGGAUCCACAUCUACGAAUUCGUACCAUAGGAGAGGUGUAUCCGCUCACCGAGAUCGGAAGAGCACACGU
B10: target 1 C4G,U11A (mixed)
RNA 1: CACCCGUGCAAAAAUGCAGGGGUCUAAAACUGAGCGGAUAACCUCUCUAUGG
RNA 2: GGGAAUGGAUCCACAUCUACGAAUUCGUACCAUAGAGAGGAUAUCCGGUCACCGAGAUCGGAAGAGCACACGU
B11: target 1 A16G,C22U (mixed)
RNA 1: CACCCGUGCAAAAAUGCAGGGGUCUAAAACUGAGCGGAUAACCUCUCUAUGG
RNA 2: GGGAAUGGAUCCACAUCUACGAAUUCGUAUCAUAGGGAGGUUAUCCGCUCACCGAGAUCGGAAGAGCACACGU
B12: target 1 C7A,U10G (mixed)
RNA 1: CACCCGUGCAAAAAUGCAGGGGUCUAAAACUGAGCGGAUAACCUCUCUAUGG
RNA 2: GGGAAUGGAUCCACAUCUACGAAUUCGUACCAUAGAGAGGUGAUACGCUCACCGAGAUCGGAAGAGCACACGU
B13: target 1 insU 3' of 21,insC 3' of 18 (mixed)
RNA 1: CACCCGUGCAAAAAUGCAGGGGUCUAAAACUGAGCGGAUAACCUCUCUAUGG
RNA 2: GGGAAUGGAUCCACAUCUACGAAUUCGUACCUAUACGAGAGGUUAUCCGCUCACCGAGAUCGGAAGAGCACACGU
B14: target 1 insC 3' of 11,insA 3' of 3 (mixed)
RNA 1: CACCCGUGCAAAAAUGCAGGGGUCUAAAACUGAGCGGAUAACCUCUCUAUGG
RNA 2: GGGAAUGGAUCCACAUCUACGAAUUCGUACCAUAGAGAGGUCUAUCCGCUACACCGAGAUCGGAAGAGCACACGU
B15: target 1 A18U,U19A (mixed)
RNA 1: CACCCGUGCAAAAAUGCAGGGGUCUAAAACUGAGCGGAUAACCUCUCUAUGG
RNA 2: GGGAAUGGAUCCACAUCUACGAAUUCGUACCAAUGAGAGGUUAUCCGCUCACCGAGAUCGGAAGAGCACACGU
B16: target 1 U19G,C22U (mixed)
RNA 1: CACCCGUGCAAAAAUGCAGGGGUCUAAAACUGAGCGGAUAACCUCUCUAUGG
RNA 2: GGGAAUGGAUCCACAUCUACGAAUUCGUAUCAGAGAGAGGUUAUCCGCUCACCGAGAUCGGAAGAGCACACGU
B17: target 1 insU 3' of 20,insA 3' of 11 (mixed)
RNA 1: CACCCGUGCAAAAAUGCAGGGGUCUAAAACUGAGCGGAUAACCUCUCUAUGG
RNA 2: GGGAAUGGAUCCACAUCUACGAAUUCGUACCAUUAGAGAGGUAUAUCCGCUCACCGAGAUCGGAAGAGCACACGU
B18: target 1 insC 3' of 19,insU 3' of 12 (mixed)
RNA 1: CACCCGUGCAAAAAUGCAGGGGUCUAAAACUGAGCGGAUAACCUCUCUAUGG
RNA 2: GGGAAUGGAUCCACAUCUACGAAUUCGUACCAUCAGAGAGGUUUAUCCGCUCACCGAGAUCGGAAGAGCACACGU
B19: target 1 insC 3' of 13,insU 3' of 4 (mixed)
RNA 1: CACCCGUGCAAAAAUGCAGGGGUCUAAAACUGAGCGGAUAACCUCUCUAUGG
RNA 2: GGGAAUGGAUCCACAUCUACGAAUUCGUACCAUAGAGAGCGUUAUCCGCUUCACCGAGAUCGGAAGAGCACACGU
B20: target 1 insA 3' of 11,insA 3' of 2 (mixed)
RNA 1: CACCCGUGCAAAAAUGCAGGGGUCUAAAACUGAGCGGAUAACCUCUCUAUGG
RNA 2: GGGAAUGGAUCCACAUCUACGAAUUCGUACCAUAGAGAGGUAUAUCCGCUCAACCGAGAUCGGAAGAGCACACGU
B21: target 1 insA 3' of 4,insG 3' of 1 (mixed)
RNA 1: CACCCGUGCAAAAAUGCAGGGGUCUAAAACUGAGCGGAUAACCUCUCUAUGG
RNA 2: GGGAAUGGAUCCACAUCUACGAAUUCGUACCAUAGAGAGGUUAUCCGCAUCAGCCGAGAUCGGAAGAGCACACGU
B22: target 1 insU 3' of 12,insU 3' of 7 (mixed)
RNA 1: CACCCGUGCAAAAAUGCAGGGGUCUAAAACUGAGCGGAUAACCUCUCUAUGG
RNA 2: GGGAAUGGAUCCACAUCUACGAAUUCGUACCAUAGAGAGGUUUAUCUCGCUCACCGAGAUCGGAAGAGCACACGU
B23: target 1 insC 3' of 12,insU 3' of 12 (mixed)
RNA 1: CACCCGUGCAAAAAUGCAGGGGUCUAAAACUGAGCGGAUAACCUCUCUAUGG
RNA 2: GGGAAUGGAUCCACAUCUACGAAUUCGUACCAUAGAGAGGCUUUAUCCGCUCACCGAGAUCGGAAGAGCACACGU
B24: target 1 A1G,G15U (mixed)
RNA 1: CACCCGUGCAAAAAUGCAGGGGUCUAAAACUGAGCGGAUAACCUCUCUAUGG
RNA 2: GGGAAUGGAUCCACAUCUACGAAUUCGUACCAUAGAUAGGUUAUCCGCUCGCCGAGAUCGGAAGAGCACACGU

What follows are binders tested against T1, EsCas13d, nuclease-dead (assay: crRNA (strand 1, pre-loaded); Mg2+; 40 mM Tris-HCl pH 7.5, 150 mM NaCl, 6 mM MgCl2, 1 mM DTT, 0.1% Tween-20, 0.2 mg/ml BSA; 25 C; 10 min per concentration, then washed). Details: tags: His6-TwinStrep-SUMO cleaved; N-terminal SNAP kept (SNAP-Surface 488); label: 3' end held by stalled T7 RNA polymerase.

Point of comparison: B3, Kd 68 ± 12 nM. Against it:
- B1 — within error, 58 ± 6 nM
- B2 — within 1.5-fold, 47.2 ± 3.4 nM
- B4 — within error, 56 ± 13 nM
- B5 — the same, 68 ± 15 nM
- B6 — 7-fold lower, 9.7 ± 0.4 nM
- B7 — 3.7-fold lower, 18.6 ± 1.1 nM
- B8 — within error, 65 ± 18 nM
- B9 — within error, 92 ± 24 nM
- B10 — 7.6-fold lower, 9 ± 1 nM
- B11 — within error, 54 ± 12 nM
- B12 — 7-fold lower, 9.7 ± 0.5 nM
- B13 — within error, 52 ± 6 nM
- B14 — 2.5-fold lower, 27.4 ± 2 nM
- B15 — 1.6-fold lower, 42 ± 7 nM
- B16 — within error, 74 ± 16 nM
- B17 — 2.3-fold lower, 29.6 ± 2.6 nM
- B18 — 2.2-fold lower, 30.6 ± 3.2 nM
- B19 — 8.4-fold lower, 8.1 ± 0.4 nM
- B20 — 4.2-fold lower, 16.1 ± 1.2 nM
- B21 — 13-fold lower, 5.2 ± 0.4 nM
- B22 — 4.2-fold lower, 16.2 ± 0.6 nM
- B23 — 6.7-fold lower, 10.2 ± 0.8 nM
- B24 — 3-fold lower, 23 ± 4 nM
